Assay [1] has as its target hemagglutinin (HA) ectodomain from A/New York/107/2003 (H7N2) (influenza A virus A/New York/107/2003 (H7N2)). The assay can be described thus: SEC. In general terms: SEC sorts molecules by how far they enter the pores of the column.
Assay [2] has the same target. As to the kind of experiment: crystal structure.

By stoichiometry N is commonly meant a count of units in the complex or per binding partner.

For “hemagglutinin (HA) ectodomain from A/New York/107/2003 (H7N2) (natural protein)”, the stoichiometry N in assay [1] and in assay [2] was 3 each time.

These data come from article PMC2932715.
